From article PMC4224615

Columns and labels:
[1] = biological target: BG505 SOSIP.664 trimer (HIV-1 BG505); test: negative-stain electron microscopy
[2] = biological target: BG505 SOSIP.664 trimer, captured by anti-histidine (SPR of Fig. 2d) (HIV-1 BG505); test: SPR

| Substance | stoichiometry N (Fabs per trimer) [1] | Kd [2] [nM] |
| --- | --- | --- |
| 35O22 Fab | 3 | – |
| 35O22 antibody (full-length IgG) | – | 5.6 |
